Experiment [1] deals with T1, truncated wild type EGFR 1-525 (EGFR1 (1-525)-SRGPF-Myc-NMHTG-6His) (human, UniProt P00533 25-525).
T1 construct: the signal peptide is left out; not shown: Myc tag
The experiment can be described thus: SPR (Biacore), antibody captured via anti-human Fc, antigen injected. How it is done: (§1) Biacore analysis was performed using a Biacore T100 with a CM5 sensory chip, and test antibodies were captured via anti-human Fc antibodies that were amino coupled to the chip using a standard amine coupling kit according to manufacturer's instructions (GE healthcare). Briefly, a CM5 chip surface was activated with EDC/NHS. Goat anti-human Fc specific polyclonal antibody (Thermo Fisher Scientific Inc., Rockford, Ill.) was diluted to 25 μg/mL in 10 mM sodium acetate (pH 4.5) and injected over the activated surface to achieve immobilization. Unreacted moieties on the biosensor surface were blocked with ethanolamine. The Biacore T100 is a surface plasmon resonance based biosensor for detecting, characterizing and quantifying bimolecular interactions, including the interactions between an antibody and its antigen. Antigen was injected at 80 μL/minute for 3 minutes and dissociation was followed for 15 minutes.
For orientation: In SPR one partner is held on a chip, and binding of the other changes the refractive index at the surface.

For experiment [2], the target named is T2, EGFRvIII extracellular domain (EGFR (1-29)-G-(298-645)-LESRGPF-Myc-NMHTG-6His) (human, UniProt P00533 298-641).
T2 construct: also called recombinant EGFRvIII; not shown: Myc tag
Described as above. How it is done: as §1

Experiment [3] deals with T1, truncated wild type EGFR 1-525 (EGFR1 …). The experiment can be described thus: SPR (Biacore T100), antibody captured on anti-human Fc, antigen in solution. On the procedure:
as §1

Experiment [4] deals with T2, EGFRvIII extracellular domain (EGFR …). The description is as above. How it is done: as §1
For experiment [5], the target named is T3, wild type human EGFR on cells (A431, NHEK, SCC-15, H292) (human, UniProt P00533 25-1210).
T3 construct: Endogenous receptor of human cell lines and keratinocytes said to express wild type EGFR; also called wild type EGFR; wtEGFR
The experiment in a line: FACS binding to normal human epidermal keratinocytes (NHEK), AlexaFluor 488 secondary antibody. How it is done:
NHEK cells express wild type EGFR.
Cells were harvested when approximately 80% confluent using trypsin, neutralized and washed once in PBS/1% FBS (FACS buffer) then resuspended at 2.5×10⁶ cells/mL in FACS buffer. 100 μL of cells/well were added to a round bottom 96-well plate. 10 μL of a 10x concentration of Ab (final concentrations are listed in the Figures) was added and plate was incubated at 4° C. for one hour. Wells were washed twice with FACS buffer then resuspended in 50 μL of secondary Ab (AlexaFluor 488) diluted in FACS buffer. The plate was incubated at 4° C. for one hour then washed twice with FACS buffer. Cells were then resuspended in 100 μL of PBS/1% formaldehyde and analyzed on a Becton Dickinson LSRII flow cytometer. Data was analyzed using WinList flow cytometry analysis software.
On the technique in general: In flow cytometry, cells or beads pass a laser one at a time.

A further experiment has as its target T4, EGFRvIII on U87MG cells (human, UniProt P00533 298-1210).
T4 construct: also called de2-7 EGFR
The experiment can be described thus: competition FACS on U87MG de2-7 cells expressing EGFRvIII; competitor Ab1-FITC at 100 nM.

In experiment [6] the target is T2, EGFRvIII extracellular domain (EGFR …). The experiment in a line: SPR (Biacore T100).

In general, Kd refers to the free concentration of one partner at which half of the binding sites on the other are occupied at equilibrium, for simple one-to-one binding. As usually defined, the koff is the first-order rate constant of dissociation. A word on the kon: it is the rate constant with which the complex forms. A lower kon goes with slow association. Usually EC50 (read off the curve) stands for the concentration needed to bring the measured effect to its halfway point. A higher EC50 (read off the curve) goes with a need for much substance.

Where a chain is given by its changes, count along the chain named. Some results are limits rather than exact numbers.

B1: Antibody N (AbN) (antibody, V domains shown)
VH: EVQLQESGPGLVKPSQTLSLTCTVSGYSIGRDFAWNWIRQPPGKGLEWMGYISYSGNTRYQPSLKSRITISRDTSKNQFFLKLNSVTAADTATYYCVTASRGFPYWGQGTLVTVSS
VL: DIQMTQSPSSMSVSVGDRVTITCHSSQDITYNVGWLQQKPGKSFKGLIYHGSNLDHGVPSRFSGSGSGTDYTLTISSLQPEDFATYYCVQYDDFPWTFGGGTKLEIK
notes: Full length IgG1
B1: in experiment [1], the “KD ratio (Ab1/variant Ab)” value was 642, binding was characterised by a dissociation constant (Kd) of 3.5 nM, the koff came out at 1.71e-05 s⁻¹ and the kon worked out at 4840 M⁻¹ s⁻¹. Also, in experiment [2], the “KD ratio (Ab1/variant Ab)” value stood at 12.5; the affinity, expressed as Kd, was 0.75 nM; the koff stood at 0.000103 s⁻¹; the on-rate (kon) worked out at 137000 M⁻¹ s⁻¹.

B2: Antibody A (AbA) (antibody, human IgG1, kappa, V domains shown)
VH: B1 VH with G30S, S55N
VL: DIQMTQSPSSMSVSVGDRVTITCHSSQDINSNIGWLQQKPGKSFKGLIYHGTNLDDGVPSRFSGSGSGTDYTLTISSLQPEDFATYYCVQYAQFPWTFGGGTKLEIKR
notes: IgG1
As to B2, in experiment [3], binding was characterised by a dissociation constant (Kd) of 220 nM and the “fold improvement in KD over Ab1” value turned out to be 10 fold. In experiment [4], the Kd worked out at 2.3 nM and the “fold increase in affinity versus Ab1” value came out at 4 fold. In addition, the “EC50 (read off the curve)” value in experiment [5] is ~50 nM. For the same molecule, in experiment [1], the “KD ratio (Ab1/variant Ab)” value was determined as 10.1, the koff came to 0.000731 s⁻¹ and the kon came out at 3260 M⁻¹ s⁻¹. For the same molecule, in experiment [2], the “KD ratio (Ab1/variant Ab)” value is 4.1, the koff is 0.000173 s⁻¹ and the on-rate constant (kon) was found to be 76100 M⁻¹ s⁻¹. In the experiment with EGFRvIII on U87MG cells, the “IC50 (read off the curve)” value was ~30 nM.

B3: Antibody B (AbB) (antibody, V domains shown)
VH: B1 VH with G30S, R31N, S55K, Y105W
VL: B1 VL with T30N, Y31S, V33I, S52T, H56D, D92A, D93Q
notes: Converted from scFv into a full length IgG1 antibody
On to B3, for which, in experiment [1], the “KD ratio (Ab1/variant Ab)” value amounted to 10.5, the Kd was 220 nM, the koff is 0.00119 s⁻¹ and the on-rate (kon) came to 5460 M⁻¹ s⁻¹. Also, in experiment [2], the “KD ratio (Ab1/variant Ab)” value was 4.2, binding was characterised by a dissociation constant (Kd) of 2.2 nM, the koff was 0.000173 s⁻¹ and the kon turned out to be 78300 M⁻¹ s⁻¹.

B4: Antibody F (AbF) (antibody, V domains shown)
VH: B1 VH with G30S
VL: B1 VL with T30N, Y31S, V33I, S52T, H56D, D92A, D93Q
notes: Full length IgG1
Take B4: in experiment [1], the “KD ratio (Ab1/variant Ab)” value was determined as 5.4, the Kd turned out to be 420 nM, the koff turned out to be 0.000831 s⁻¹ and the kon is 1980 M⁻¹ s⁻¹. For the same molecule, in experiment [2], the “KD ratio (Ab1/variant Ab)” value amounted to 2.4, the Kd is 3.9 nM, the koff was 0.000324 s⁻¹ and the kon was found to be 83600 M⁻¹ s⁻¹.

B5: Antibody D (AbD) (antibody, V domains shown)
VH: B1 VH with G30S, R31S, S100G
VL: B1 VL with T30N, Y31S, V33L, S52A, D55H, H56D, D92A, D93E
notes: Full length IgG1
On to B5, for which, in experiment [1], the “KD ratio (Ab1/variant Ab)” value came to 4.1, the dissociation constant (Kd) was found to be 550 nM, the off-rate constant (koff) is 0.00322 s⁻¹ and the association rate constant (kon) turned out to be 5820 M⁻¹ s⁻¹. Also, in experiment [2], the “KD ratio (Ab1/variant Ab)” value was 1.5, binding was put at a Kd of 6.1 nM, the koff came to 0.000866 s⁻¹ and the kon stood at 141000 M⁻¹ s⁻¹.

B6: Antibody H (AbH) (antibody, V domains shown)
VH: B1 VH with R31K, S55N, F103L
VL: B1 VL with V33I, S52A, H56D, D93E
notes: Full length IgG1
Consider B6, for which, in experiment [1], the “KD ratio (Ab1/variant Ab)” value stood at 441, binding was characterised by a dissociation constant (Kd) of 5.2 nM, the koff was 4.07e-05 s⁻¹ and the kon was 7900 M⁻¹ s⁻¹. In experiment [2], the “KD ratio (Ab1/variant Ab)” value came to 63.1, the Kd is 0.15 nM, the dissociation rate constant (koff) stood at 4.89e-05 s⁻¹ and the kon came to 327000 M⁻¹ s⁻¹.

B7: Antibody E (AbE) (antibody, V domains shown)
VH: B1 VH with G30S, R31S, S100G
VL: B1 VL with T30N, Y31S, V33L, D93Q
notes: Full length IgG1
For B7, in experiment [3], the Kd is 590 nM and the “fold increase in affinity over the KD of Ab1” value is ~4 fold. Moreover, in experiment [1], the “KD ratio (Ab1/variant Ab)” value came to 3.8, the koff came to 0.00367 s⁻¹ and the kon was 6170 M⁻¹ s⁻¹. For the same molecule, in experiment [2], the “KD ratio (Ab1/variant Ab)” value was 1.2, binding was characterised by a dissociation constant (Kd) of 8.2 nM, the koff was found to be 0.00158 s⁻¹ and the kon turned out to be 193000 M⁻¹ s⁻¹.

B8: Antibody K (AbK) (antibody, V domains shown)
VH: B1 VH with G30S, S55N, Y105W
VL: B1 VL
notes: Full length IgG1
Regarding B8, in experiment [3], binding was characterised by a dissociation constant (Kd) of 1.7 nM and the “fold increase over the KD of Ab1” value was > 1300 fold. The “EC50 (read off the curve)” value in experiment [5] is ~40 nM. Further, in experiment [1], the “KD ratio (Ab1/variant Ab)” value came to 1370, the koff turned out to be 7.92e-06 s⁻¹ and the kon was 4780 M⁻¹ s⁻¹. For the same molecule, in experiment [2], the “KD ratio (Ab1/variant Ab)” value worked out at 15.8, binding was characterised by a dissociation constant (Kd) of 0.6 nM, the koff turned out to be 7.75e-05 s⁻¹ and the on-rate (kon) was 130000 M⁻¹ s⁻¹. Further, in the experiment with EGFRvIII on U87MG cells, the “IC50 (read off the curve)” value was ~30 nM.

B9: Antibody J (AbJ) (antibody, V domains shown)
VH: B1 VH with R31K, F103L
VL: B1 VL with V33I, S52A, H56D, D93E
notes: Full length IgG1
As for B9, in experiment [1], the “KD ratio (Ab1/variant Ab)” value stood at 60.5; the affinity, expressed as Kd, was 38 nM; the koff was 8.27e-05 s⁻¹; the kon was 2200 M⁻¹ s⁻¹. Also, in experiment [2], the “KD ratio (Ab1/variant Ab)” value is 31.8, binding was characterised by a dissociation constant (Kd) of 0.3 nM, the koff came out at 9.4e-05 s⁻¹ and the kon came to 318000 M⁻¹ s⁻¹.

B10: Antibody M (AbM) (antibody, V domains shown)
VH: B1 VH with S55N
VL: B1 VL
notes: Full length IgG1
B10: the concentration giving a half-maximal response (EC50 (read off the curve)) in experiment [5] was ~40 nM. Further, in experiment [1], the “KD ratio (Ab1/variant Ab)” value amounted to 387, the Kd amounted to 5.9 nM, the koff was 2.26e-05 s⁻¹ and the kon was 3840 M⁻¹ s⁻¹. Besides, in experiment [2], the “KD ratio (Ab1/variant Ab)” value was 14.9, the Kd worked out at 0.63 nM, the koff came out at 0.000118 s⁻¹ and the kon came out at 187000 M⁻¹ s⁻¹. For the same molecule, the “IC50 (read off the curve)” value with EGFRvIII on U87MG cells is ~30 nM.

B11: Antibody L (AbL) (antibody, V domains shown)
VH: B1 VH with R31K, S55N, F103L
VL: B1 VL
notes: Full length IgG1
As for B11, in experiment [1], the “KD ratio (Ab1/variant Ab)” value came out at 722, the Kd turned out to be 3.1 nM, the koff came out at 1.78e-05 s⁻¹ and the kon turned out to be 5650 M⁻¹ s⁻¹. In addition, in experiment [2], the “KD ratio (Ab1/variant Ab)” value was found to be 27.1, the Kd was 0.35 nM, the koff is 6.95e-05 s⁻¹ and the on-rate constant (kon) stood at 200000 M⁻¹ s⁻¹.

B12: Antibody O (AbO) (antibody, V domains shown)
VH: B1 VH with R31K, S55N
VL: B1 VL
notes: Full length IgG1; also called Antibody 0
B12: the “fold increase in affinity relative to Ab1” value in experiment [6] was found to be 63 fold. In experiment [1], the “KD ratio (Ab1/variant Ab)” value amounted to 582, the dissociation constant (Kd) turned out to be 3.9 nM, the koff is 2.05e-05 s⁻¹ and the kon was 5250 M⁻¹ s⁻¹. In addition, in experiment [2], the “KD ratio (Ab1/variant Ab)” value is 35.2, the dissociation constant Kd was 0.27 nM, the off-rate constant (koff) was determined as 5.22e-05 s⁻¹ and the on-rate constant (kon) came to 196000 M⁻¹ s⁻¹.

B13: Antibody C (AbC) (antibody, V domains shown)
VH: B1 VH with G30S, R31S, S100G
VL: B1 VL with T30N, Y31S, V33I, S52T, H56D, D92E, D93Q
notes: Full length IgG1
As for B13, in experiment [2], the “KD ratio (Ab1/variant Ab)” value was 2.6, binding was put at a Kd of 3.6 nM, the off-rate constant (koff) was 0.00079 s⁻¹ and the kon came out at 220000 M⁻¹ s⁻¹.

(Values after patent US20150337042A1 (AbbVie / Abbott, published 2015).)
